Measurements as given in patent EP2246362B1, “Polymer conjugates of mutated neublastin” (Biogen Idec MA Inc., priority 2003, dated 2004).
Read-outs that look alike come from different tables or passages of the source.

Experiments:
[1] = biological target: T1, c-Ret on NB41A3-mRL3 cells (UniProt P35546 29-1115, limits assumed); test: cell-based or functional assay
c-Ret = biological target: T2, c-Ret (Mus musculus, UniProt O35118+P35546); test: Kinase Receptor Activation (KIRA) ELISA: neublastin dependent phosphorylation of c-Ret in NB41A3-mRL3 cells; assay type: cell-based, murine; settings: for KIRA: ~Max Efficacy vs WT: relative to wild-type, NB41A3-mRL3 cells; for activity / potency in the KIRA ELISA (in words): compared with wild-type NBN113 / mature form
T2 construct: NB41A3-mRL3 cells, an adherent murine neuroblastoma cell line which expresses Ret and GFRα3; endogenous in cells; host or cells: NB41A3-mRL3 (murine neuroblastoma)
T2 sequence (P35546 29-1115): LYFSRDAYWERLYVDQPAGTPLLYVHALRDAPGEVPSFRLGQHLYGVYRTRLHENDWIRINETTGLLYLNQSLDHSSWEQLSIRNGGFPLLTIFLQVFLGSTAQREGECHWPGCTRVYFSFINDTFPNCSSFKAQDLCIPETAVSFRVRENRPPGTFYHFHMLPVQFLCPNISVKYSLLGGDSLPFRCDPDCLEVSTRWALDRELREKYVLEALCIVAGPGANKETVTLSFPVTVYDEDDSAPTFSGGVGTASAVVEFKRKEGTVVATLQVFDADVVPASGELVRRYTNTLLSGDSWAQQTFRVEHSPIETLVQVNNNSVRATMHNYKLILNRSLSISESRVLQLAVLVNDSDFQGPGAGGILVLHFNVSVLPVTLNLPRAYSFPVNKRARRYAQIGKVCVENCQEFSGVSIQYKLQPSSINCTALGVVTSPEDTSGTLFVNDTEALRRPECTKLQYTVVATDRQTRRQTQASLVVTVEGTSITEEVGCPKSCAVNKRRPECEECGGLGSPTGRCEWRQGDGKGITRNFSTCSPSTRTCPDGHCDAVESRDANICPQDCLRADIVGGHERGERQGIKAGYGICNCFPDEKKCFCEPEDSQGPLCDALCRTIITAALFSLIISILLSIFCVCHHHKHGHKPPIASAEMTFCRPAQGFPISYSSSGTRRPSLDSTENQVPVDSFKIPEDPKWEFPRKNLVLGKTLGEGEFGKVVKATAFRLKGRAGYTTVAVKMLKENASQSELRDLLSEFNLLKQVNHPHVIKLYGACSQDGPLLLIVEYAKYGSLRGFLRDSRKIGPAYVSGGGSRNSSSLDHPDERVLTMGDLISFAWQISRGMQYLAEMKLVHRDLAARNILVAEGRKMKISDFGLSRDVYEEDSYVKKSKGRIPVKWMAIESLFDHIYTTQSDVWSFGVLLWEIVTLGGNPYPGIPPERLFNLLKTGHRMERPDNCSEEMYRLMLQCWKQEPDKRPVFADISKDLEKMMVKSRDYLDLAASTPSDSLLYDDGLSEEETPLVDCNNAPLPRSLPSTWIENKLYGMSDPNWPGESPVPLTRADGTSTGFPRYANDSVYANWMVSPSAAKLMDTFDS
T2 sequence (O35118 29-397): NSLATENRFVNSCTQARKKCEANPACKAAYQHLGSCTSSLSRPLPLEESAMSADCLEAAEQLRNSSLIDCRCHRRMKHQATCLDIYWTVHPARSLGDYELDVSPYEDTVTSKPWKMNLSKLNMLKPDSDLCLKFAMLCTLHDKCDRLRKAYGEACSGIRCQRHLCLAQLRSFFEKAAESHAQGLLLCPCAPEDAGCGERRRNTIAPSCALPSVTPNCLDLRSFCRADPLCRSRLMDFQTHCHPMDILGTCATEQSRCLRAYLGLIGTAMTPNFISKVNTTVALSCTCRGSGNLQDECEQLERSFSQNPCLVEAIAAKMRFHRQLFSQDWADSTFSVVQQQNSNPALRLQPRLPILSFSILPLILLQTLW
Description: The potency of PEGylated mutated rat neublastin was measured using neublastin dependent activation/ phosphorylation of c-Ret as a reporter for neublastin activity in an ELISA that was specific for the presence of phosphorylated RET. NB41A3-mRL3 cells, an adherent murine neuroblastoma cell line which expresses Ret and GFRα3, were plated at 2 x 10^5 cells per well in 24-well plates in Dulbecco's modified eagle medium (DMEM), supplemented with 10 % fetal bovine serum, and cultured for 18 h at 37 °C and 5 % CO2.
The cells were washed with PBS, and treated with serial dilutions of neublastin in 0.25 mL of DMEM for 10 min at 37°C and 5 % CO2. Each sample was analyzed in duplicate. The cells were washed with 1 mL of PBS, and lysed for 1h at 4 °C with 0.30 mL of 10 mM Tris HC1, pH 8.0, 0.5 % Nonidet P40, 0.2 % sodium deoxycholate, 50 mM NaF, 0.1 mM Na3 VO4,1 mM phenylmethylsulfonyl fluoride with gently rocking the plates. The lysates were further agitated by repeated pipetting and 0.25 mL of sample was transferred to a 96-well ELISA plate that had been coated with 5 µg/mL of anti-Ret mAb (AA.GE7.3) in 50 mM carbonate buffer, pH 9.6 at 4°C for 18 h, and blocked at room temperature for one hour with block buffer (20 mM Tris HC1 pH 7.5, 150 mM NaCl, 0.1% Tween-20 (TBST) containing 1 % normal mouse serum and 3 % bovine serum albumin).
After a 2 h incubation at room temperature, the wells were washed 6-times with TBST. Phosphorylated Ret was detected by incubating the wells at room temperature for 2 h with 2 µg/mL of horseradish peroxidase (HRP)-conjugated anti-phosphotyrosine 4G10 antibody in block buffer, washing 6-times with TBST, and measuring HRP activity at 450 nm with a colorometric detection reagent. The absorbance values from wells treated with lysate or with lysis buffer were measured and the background corrected signal was plotted as a function of the concentration of neublastin present in the activation mixture.
Neublastin activity was determined by its ability to stimulate c-Ret phosphorylation in NB41A3-mRL3 cells using the KIRA ELISA described in Example 3. Phosphorylated Ret was detected by incubating (2 hours) the captured receptor with HRP-conjugated phosphotyrosine antibody (4G10; 0.2 µg per well). Following the incubation, the wells were washed six times with TBST, and the HRP activity detected at 450 nm with a colorimetric assay. The absorbance values from wells treated with lysate or with lysis buffer alone were measured, background corrected, and the data plotted as a function of the concentration of neublastin present in the activation mixture.

[2] = set-up: species or system mice; settings: mouse, in vivo, sc
Excerpt: The pharmokinetic properties of various PEGylated and non-PEGylated mutated neublastin products in rat and mouse models were examined (see Table 8 for summary of results). The analysis of the PEGylated […] samples are complicated by the presence of adducts comprising 2, 3 and 4 PEGs per molecule, which each will display a different PK profile. In early PK studies, mice were used to facilitate screening through a variety of candidates and routes of administration. […] This difference in bioavailability was particularly pronounced following i.p. administration. Levels in mice reached 1600 ng/mL after 7 hr and remained at 400 ng/mL after 24 hr. In contrast, rat levels were constant at 100 ng/mL for 4-48 hr. Two surprising and unexpected results emerged from the PK studies summarized in Table 8: 1) PEGylation of the amino-terminal amino acids of non-glycosylated neublastin was not sufficient to increase serum exposure substantially, and 2) PEGylation of the amino-terminal amino acid(s) of neublastin together with modification (e.g. PEGylation or glycosylation) of amino acid 95 was sufficient to increase serum exposure substantially.

[3] = biological target: T1, c-Ret on NB41A3-mRL3 cells; test: cell-based or functional assay; remark: listed apart in the source
[4] = biological target: T1, c-Ret on NB41A3-mRL3 cells; test: cell-based or functional assay; remark: listed apart in the source
[5] = estimated EC50, NB41A3-mRL3 cells

T1 sequence (P35546 29-1115 limits assumed): as the sequence (P35546 29-1115) above

Row | Molecule | KIRA: ∼EC50 [3] | KIRA: ∼Max Efficacy vs WT [3] | Exposure in Mice After s.c. Administration [2] | other results
1 | NBN104 (CHO) (from UniProt Q5T4W7 117-220) (ligand) | – | – | – | KIRA: ∼EC50 [1]: 0.7 nM; KIRA: ∼Max Efficacy vs WT [1]: 90%
2 | 2 X 20 kDa PEG-NBN104 (CHO) (from UniProt Q5T4W7 117-220) (ligand) | – | – | – | KIRA: ∼EC50 [1]: 1 nM; KIRA: ∼Max Efficacy vs WT [1]: 105%
3 | 1 X 20 kDa PEG-NBN104 (CHO) (from UniProt Q5T4W7 117-220) (ligand) | – | – | – | KIRA: ∼EC50 [1]: 0.3 nM; KIRA: ∼Max Efficacy vs WT [1]: 110%
4 | BSA-conjugated neublastin (monosubstituted product) (from UniProt P02769 25-607) | – | – | – | IC50 in the KIRA ELISA [1]: 3 to 6 nM
5 | 1 X 20 kDa PEG-NBN104 (CHO): CHO derived NBN104 dimer glycosylated at 95,95 with one 20 kDa PEG at amino acid 1 (conjugate) AAGARGCRLRSQLVPVRALGLGHRSDELVRFRFCSGSCRRARSPHDLSLASLLGAGALRPPPGSRPVSQPCCRPTRYEAVSFMDVNSTWRTVDRLSATACGCLG | – | – | ++ | EC50 (c-Ret; [5]): 0.3 nM; KIRA: ~Max Efficacy vs WT (c-Ret): 110%; serum exposure after s.c. administration (in words) [2]: high serum exposure
6 | 2 X 20 kDa PEG-NBN104 (CHO): CHO derived NBN104 dimer glycosylated at 95,95 with two 20 kDa PEGs at amino acids 1,1 (conjugate) AAGARGCRLRSQLVPVRALGLGHRSDELVRFRFCSGSCRRARSPHDLSLASLLGAGALRPPPGSRPVSQPCCRPTRYEAVSFMDVNSTWRTVDRLSATACGCLG | – | – | ++ | EC50 (c-Ret; [5]): 1 nM; KIRA: ~Max Efficacy vs WT (c-Ret): 105%; serum exposure after s.c. administration (in words) [2]: high serum exposure
7 | 2 X 10 kDa PEG-NBN (ligand, 10 kDa PEG on amino acid 1 of each chain (PEGylated amino acids 1,1)) AGTRSSRARATDARGCRLRSQLVPVSALGLGHSSDELIRFRFCSGSCRRARSPHDLSLASLLGAGALRSPPGSRPISQPCCRPTRYEAVSFMDVNSTWRTVDHLSATACGCLG | ~0.2 nM | ~72% | – | –
8 | 2 X 5 kDa PEG-NBN (ligand, 5 kDa PEG on amino acid 1 of each chain (PEGylated amino acids 1,1)) AGTRSSRARATDARGCRLRSQLVPVSALGLGHSSDELIRFRFCSGSCRRARSPHDLSLASLLGAGALRSPPGSRPISQPCCRPTRYEAVSFMDVNSTWRTVDHLSATACGCLG | ~0.2 nM | ~105% | – | –
9 | 2 X 20 kDa PEG-NBN: E. coli derived NBN113 dimer with two 20 kDa PEGs at amino acids 1,1 (conjugate) AGTRSSRARATDARGCRLRSQLVPVSALGLGHSSDELIRFRFCSGSCRRARSPHDLSLASLLGAGALRSPPGSRPISQPCCRPTRYEAVSFMDVNSTWRTVDHLSATACGCLG | – | – | + | serum exposure after s.c. administration (in words) [2]: low-to-moderate serum exposure
10 | 2 X 20 kDa PEG-NBN (ligand, 20 kDa PEG on amino acid 1 of each chain (cell printed '1,1 1')) AGTRSSRARATDARGCRLRSQLVPVSALGLGHSSDELIRFRFCSGSCRRARSPHDLSLASLLGAGALRSPPGSRPISQPCCRPTRYEAVSFMDVNSTWRTVDHLSATACGCLG | ~0.6 nM | ~80% | – | –
11 | 1 X 20 kDa Branched PEG-NBN (ligand, one 20 kDa branched PEG per dimer, on amino acid 1 of one chain (PEGylated amino acids: 1)) AGTRSSRARATDARGCRLRSQLVPVSALGLGHSSDELIRFRFCSGSCRRARSPHDLSLASLLGAGALRSPPGSRPISQPCCRPTRYEAVSFMDVNSTWRTVDHLSATACGCLG | ~0.2 nM | ~83% | – | –
12 | 3 X 10 kDa PEG-WT/ N95K-NBN106: wild-type/N95K NBN106 heterodimer with three 10 kDa PEGs at amino acids 1,1,95 (conjugate) chain 1: ARATDARGCRLRSQLVPVSALGLGHSSDELIRFRFCSGSCRRARSPHDLSLASLLGAGALRSPPGSRPISQPCCRPTRYEAVSFMDVNSTWRTVDHLSATACGCLG chain 2: ARATDARGCRLRSQLVPVSALGLGHSSDELIRFRFCSGSCRRARSPHDLSLASLLGAGALRSPPGSRPISQPCCRPTRYEAVSFMDVKSTWRTVDHLSATACGCLG | – | – | ++ | –
13 | 4 X 10 kDa PEG NHN106-N95K: homodimer of NBN106-N95K conjugated to four 10 kDa PEG moieties (conjugate) ARATDARGCRLRSQLVPVSALGLGHSSDELIRFRFCSGSCRRARSPHDLSLASLLGAGALRSPPGSRPISQPCCRPTRYEAVSFMDVKSTWRTVDHLSATACGCLG | – | – | ++ | fold less potent than non-mutated (wild-type) NBN113 in activating Ret (c-Ret): approximately 10 fold; activity / potency in the KIRA ELISA (in words) (c-Ret): reduced potency
14 | 3 X 10 kDa PEG NBN106-N95K: homodimer of NBN106-N95K conjugated to three 10 kDa PEG moieties (conjugate) ARATDARGCRLRSQLVPVSALGLGHSSDELIRFRFCSGSCRRARSPHDLSLASLLGAGALRSPPGSRPISQPCCRPTRYEAVSFMDVKSTWRTVDHLSATACGCLG | – | – | ++ | activity / potency in the KIRA ELISA (in words) (c-Ret): fully active
15 | 2 X 20 kDa Branched PEG NBN106-N95K: NBN106-N95K dimer with two branched 20 kDa PEGs at amino acids 1,95 (conjugate) ARATDARGCRLRSQLVPVSALGLGHSSDELIRFRFCSGSCRRARSPHDLSLASLLGAGALRSPPGSRPISQPCCRPTRYEAVSFMDVKSTWRTVDHLSATACGCLG | – | – | ++ | KIRA: ~EC50 (c-Ret; [5]): inactive; KIRA: ~Max Efficacy vs WT (c-Ret): inactive
16 | rat mutated neublastin NBN106-N95K (non-PEGylated) (ligand) ARATDARGCRLRSQLVPVSALGLGHSSDELIRFRFCSGSCRRARSPHDLSLASLLGAGALRSPPGSRPISQPCCRPTRYEAVSFMDVKSTWRTVDHLSATACGCLG | – | – | – | specific activity in the KIRA ELISA [4]: ~10 nM

Further lines, with some results ahead:

Row | KIRA: ∼EC50 [3] | KIRA: ∼Max Efficacy vs WT [3] | Molecule | Exposure in Mice After s.c. Administration [2] | other results
17 | ~0.7 nM | ~115% | 3 X 10 kDa PEG-WT/N95K-NBN106 (ligand, 10 kDa PEG on the amino-terminal amino acid and on Lys95; 10 kDa PEG on the amino-terminal amino acid) chain 1: ARATDARGCRLRSQLVPVSALGLGHSSDELIRFRFCSGSCRRARSPHDLSLASLLGAGALRSPPGSRPISQPCCRPTRYEAVSFMDVNSTWRTVDHLSATACGCLG chain 2: ARATDARGCRLRSQLVPVSALGLGHSSDELIRFRFCSGSCRRARSPHDLSLASLLGAGALRSPPGSRPISQPCCRPTRYEAVSFMDVKSTWRTVDHLSATACGCLG | – | –
18 | ~1 nM | ~80% | 4 X 5 kDa PEG NBN106-N95K (ligand, 5 kDa PEG on the amino-terminal amino acid and on Lys95 of each chain (PEGylated amino acids 1,1,95,95)) ARATDARGCRLRSQLVPVSALGLGHSSDELIRFRFCSGSCRRARSPHDLSLASLLGAGALRSPPGSRPISQPCCRPTRYEAVSFMDVKSTWRTVDHLSATACGCLG | – | –
19 | ~0.8 nM | ~100% | 3 X 10 kDa PEG NBN106-N95K (ligand, three 10 kDa PEG per dimer: on both amino-terminal amino acids and on one Lys95 (PEGylated amino acids 1,1,95)) ARATDARGCRLRSQLVPVSALGLGHSSDELIRFRFCSGSCRRARSPHDLSLASLLGAGALRSPPGSRPISQPCCRPTRYEAVSFMDVKSTWRTVDHLSATACGCLG | – | –
